Laboratory results reported in the DeepSol protein solubility set.

Test: soluble on expression in E. coli; label from the status in PepcDB or PDB records

| Sequence | soluble on expression in E. coli |
| --- | --- |
| MAGQLTFKRELEKVFEKELKKRIERIGKTPLSPLSLILFTRIAELSAIENGYIRPTEYEMREIFAARTTYSEGLLSTLKDIIYSHFLRSNLGEHLEDFIYTLQRIEDIQSKIDELILREMREVSLRKVYHELLRFLLDMLCDKDMVRFD | not soluble |
| MNNENERFEGFFSRVVEQVRTLVLVPICQENKSENASPVCSVSSRVQEVLGLAQAIRLEVVYYETVNINIPRPATLFGTGKVKALTHYISEYDIELVIVDHFLTPVQQRNLEKLWNCKVIDRTALILEIFGDRARTKEGVLQVELAHLSYQKSRLVRSWTHLERQRGGHGFLGGPGETQIEADRRLLQEKIIRIRRELEKVIKTRALHRAKRKKTSHPIVALVGYTNTGKSTLFNRLSGANVLAKDMLFATLDPTLRKVVLPHGKTILLSDTVGFISHLPTHLIAAFRATLEEVVEADLILHVRDMSDLDHRAHGQDVLEVLADLGIDIDDTEHIIEVWNKIDILDEHALNVLQTSARTRLNPAVMVSALMSDGLDQLLTAIEKRVFGEMQSIECLLRPHEMSLISWFYENSGEIMQEGHNDGSVTIRAMLTSEAKKRLDHIKQTMN | not soluble |
| MAEKLNFEELNSMQRYSQFAVFRAIPGALGSDRAEIVAQAQSFFDGLETAGKVEVRGIYDLAGCRAEADFMIWWIAEEFEEIQAAFARFRRETVLGQVSEVAWLGNSLHRPAEFNRSHLPSFIMGEIPGDWITVYPFVRSYDWYIMDPQKRRKILAEHGQAARDFPDVRANTVPAFALGDYEWMLAFEAPRLDRIVDLMHKMRYTEARLHVREETPFFTGRRVSEVSELVNVLP | not soluble |
| MGSDKIHHHHHHMAMTQTENQTAPQQHIRIFDTTLRDGEQSPGVALNHAQKLEIAHTLARMGVDVIEAGFPIASPGDLEGVSRIAREVRGPVITALARANRADIEAAAKGVEAAEKSRIHTFIATSPIHMQKKLNLEPDAVIERAVEAVRLARQYVDDVEFSAEDATRSEWDFLSRIFKAAVEAGATTINVPDTVGYTTPEEMRKLFAYLKAKLPAHVILSSHCHDDLGMAVANSIAAAEGGARQIECTINGIGERAGNASLEEIVMAFHTRRDVYGYETGIRTRELYRASRLVSRLSGMPVQPNKAIVGDNAFAHESGIHQDGVIKARETYEIMNAELVGREAAVLVMGKHSGRAAFRKALTDLGYGDIPDDKVQHLFGRFKDLADRKGQIYAEDLRALVDARSDVPQTFSLEGFQITSGMNMMPVAFVRLHTPDGPVDATAHGDGPVEAAFQAISKITGISPTLESYRIQSVTRGDDALGEVSIHVRHGETQLNGTGVATDIVEASARAWIRVMNMIVAGMGKNKAITQMTP | not soluble |
| MNALVAHNSEAWDKKVETGNEWTVAVEQQVIEQAKKGNWDIRVTPMKDVPKDWFPPIKGLKVLCLASGGGQQGPVLAAAGADVTVLDNSEKQLNQDRMIAERDGLTIHTVKGSMDDLSVFNDESFDVIVHPVANVFVENVLPVWKEAYRVLKRNGILISGFVNPVVFLFDTVLEQQGVLKVKHSIPYADPEDLPKHKVKELIENNEALEFGHSLEDQIKGQIDAGFIVTGFYEDKGGFVLDQYIHTYSATRSVKVLEHHHHHH | soluble |
| MPTLLIRLQGPLQSWGTRSRFDHRDTWPYPTKSGVVGLLAAALGRDRREDVSDLAALRMGVRVDRKGVLKVDYQTAQFVYRTEGYVAVSTPKEREWLSRYTKTPIRVDERNATVTSKRYFLSDAAFLVGLEGERALLEALHRALKNPRFPLYLGRKSYVPSPPPYLPDGLVEAPLAEALEGYPYLLGGKPPEDLLLALEAEEGRLVYDQPAGPFSERRFAARFVREEVLPKERVPEGPPAWEVARVAH | soluble |
| TMITNSRGSVDLQPSLTGVFPSGLIETKVSAAKITENYQFDSRIRLNSIGFIPNHSKKATIAANCSTFYVVKEDGTIVYTGTATSMFDNDTKETVYIADFSSVNEEGTYYLAVPGVGKSVNFKIAMNVYEDAFKTAMLGMYLLRCGTSVSATYNGIHYSHGPCHTNDAYLDYINGQHTKKDSTKGWHDAGDYNKYVVNAGITVGSMFLAWEHFKDQLEPVALEIPEKNNSIPDFLDELKYEIDWILTMQYPDGSGRVAHKVSTRNFGGFIMPENEHDERFFVPWSSAATADFVAMTAMAARIFRPYDPQYAEKCINAAKVSYEFLKNNPANVFANQSGFSTGEYATVSDADDRLWAAAEMWETLGDEEYLRDFENRAAQFSKKIEADFDWDNVANLGMFTYLLSERPGKNPALVQSIKDSLLSTADSIVRTSQNHGYGRTLGTTYYWGCNGTVVRQTMILQVANKISPNNDYVNAALDAISHVFGRNYYNRSYVTGLGINPPMNPHDRRSGADGIWEPWPGYLVGGGWPGPKDWVDIQDSYQTNEIAINWNAALIYALAGFVNYNSPQNEVLYGDVNDDGKVNSTDLTLLKRYVLKAVSTLPSSKAEKNADVNRDGRVNSSDVTILSRYLIRVIEKLPI | soluble |
| AMASASLCFLETENISKMAQILVDRCVEITNASFGFLYELVFGGDARILAVSSTAAVPAGGLCAQVKGHIEREGFFLVTPSDGLLFEPVKAGTTVLTNNPTTLDHLICRDSGNLGQINSFLGTPLKVGSRVVGMIGLTDRPDGFTDMERREIEAFAQTAALALHSARAEIEHKK | not soluble |
| MSHAHKKHKENAPKSLNFYVITISTSRYEKLLKKEPIVDESGDIIKQLLIENGHKIIGYSLVPDDKIKILKAFTDALSIDEVDVIISTGGTGYSPTDITVETIRKLFDREIEGFSDVFRLVSFNDPEVKAAAYLTKASAGIIGKKIVYLLPGSPDAVKLALKELILPEVGHLVYLVRS | soluble |
| MGSDKIHHHHHHMNSLEQLRQAEQALLEIFSGIDAQVKQNLKRVLEAFRNQRVGAHHFAGVSGYGHDDLGRETLDKVFAEVMGAEAAAVRVQFVSGTHAIACALFGVLRPGDEMLAVVGSPYDTLEEVIGLRGQGQGSLIEFGIKYRQLELTSQGSIDWQTLSTSITDNTRLVLIQRSCGYSWRPSLSIADIEKVVNLVKQQNPDTVCFVDNCYGEFIETQEPTHVGADLMAGSLIKNPGGTIVTAGGYVAGRADLVEAAACRLTAPGIGSYGGATFDQNRLLFQGLFLSPQMVGEAMKGTHLTGYVFDKLGYPVNPAPLAPRGDVIQAIKLGSGKKLIAFCKAVQQNSPVGSYLDPVPDDMPGYESQVVMAGGTFIEGSTLEFSADGPLREPYVVYCQGGTHWSHVAIALEAAIDAVGEA | not soluble |
| MQPKVVYGNAAVEGVNRWGWFMGHFITPEDDPRSTEMLEVKWAVHKAGDSRTEWAVNNQAATLSILIDGEFRLQFEDREILLSREGDYVLWCAGVPHWWVAESDCTILTVRWPSKPGDSVALPEESKS | soluble |
| SDFPPTKLDYHVDMFNLQSHSRFLSLFKAQDGRIALILESTVFHPQGGGQPSDTGLIVFSGSDLKFSVQDVRSKDGIVLHYGVFEGSNPESGIDSEKGKEVYLTVDESRRKLNSRLHSAGHLLDMCMQKVGLGHLEPGKGYHFPDGPFVEYKGSVPQEEFQVKQKELEAEANELISKGGKVYAAILPYEEASVLCGGSLPDYISKGSTPRIIKLGDSPGCPCGGTHVSNLSDIISMKMRTKKGMTKVFYTIAS | soluble |
| MSLADISVIQSLPLSGSQAVTGRALNAGARLYFDWLNLNGGINGETIRLVARDDEQKIEQTVRNVRDMARVDNPVALLTVVGTANVEALMREGVLAEARLPLVGPATGASSMTTDPLVFPIKASYQQEIDKMITALVTIGVTRIGVLYQEDALGKEAITGVERTLKAHALAITAMASYPRNTANVGPAVDKLLAADVQAIFLGATAEPAAQFVRQYRARGGEAQLLGLSSIDPGILQKVAGLDAVRGYSLALVMPNPGKSVNPVIREFNRARAAVGAKDVDLSFRAVEGFVAAKVLAEAIRRAGPKPTREQVRHALTELRDYDVGGGFTVDFTDRSRPGSHYIELGVVGPNGLVIQEGHHHHHH | soluble |
| MSLATESDETSLDFPDHALERVRDILRLRRNFDISSYKDKYLKRRIAIRVRATRSVTADAYCDLVARNERELELLLKGLTIHVSQFFRNSSTFEALRGTVLPAIFDRLRREGRDSATFWSVGCASGEEPYSLAIILRDSFRESLKEFKVSLVATDIDGGILDAARAGIYSPERLAEVPAEVKDRYFRPMGERFVLDPTIREMVDFRRSDLFDPESSVESDLILCRNVLIYFERSEQARILRGFVSSLCTGGVLVLGKAETLVAEVRQRFTTLCPMERIYQKNRFSVYEGHHHHHH | soluble |
| MSEVESQQSQETNGSSKFDVPEIELIIKASTIDGRRKGACLFCQEYFMDLYLLAELKTISLKVTTVDMQKPPPDFRTNFEATHPPILIDNGLAILENEKIERHIMKNIPGGYNLFVQDKEVATLIENLYVKLKLMLVKKDEAKNNALLSHLRKINDHLSARNTRFLTGDTMCCFDCELMPRLQHIRVAGKYFVDFEIPTHLTALWRYMYHMYQLDAFTQSCPADQDIINHYKLQQSLKMKKHEELETPTFTTYIPIDISE | soluble |
| MKTPVCSEEQGPARDVIAQLLEDALQVESQEQPEQAFVKPHLVSEFDIYGFRTVPDDDEEEKLVAKVRALDLKTLYLTDNQEVSTGVKWENYFASTMNREMACSPELKNLIRAGIPHEHRSKVWKWCVDRHTRKFKDSMEPDYFQTLLQKALEKQNPASKQIELDLLRTLPNNKHYSSPTSEGIQKLRSVLLAFSWRNPDIGYCQGLNRLVAVALLYLDQEDAFWCLVTIVEVFMPRDYYTKTLLGSQVDQRVFRDLLSEKLPRLHTHFEQYKVDYTLITFNWFLVVFVDSVVSDILFKIWDSFLYEGPKVIFRFALALFKYKEEEILKLQDSMSIFKYLRYFTRTILDARKLISISFGDLNPFPLRQIRNRRAYHLEKVRLELTELEAIREDFLRERDTSPDKGELVSDEEEDT | not soluble |
| MSLRYPMSKLAYHRVLLKLSGEALMGSADYGIDPKVINRLAGEVIEAQNAGAELALVIGGGNIFRGAGLAAKGMDRVTGDHMGMLATIINALAMQDALEKLGTKVRVMSAIKINNVCEDFIRRRAIRHLEKSRITIFAAGTGNPFFTTDSGAALRAIEIGADLLLKATKVDGIYNKDPQKHCDAVKYSTLSYDEVISQNLEVMDTAAFALARDSNLPLRIFDIEQPGVLLRILHGEEIGTLVKERNSKSEGHHHHHH | not soluble |
| MGSDKIHHHHHHMAGEDRDMETETETVCPGNTAGRFAAGEDPAKRDQILAGAWRVFKLKGFDAASMNDITREAGVSKGTIYVYFSNKEDLFAALVDHHRQEFATSMRNILAGTEEVRKGLEQFGKAFANKMICSDMIPAMRSVIGVIDRMPKLAQRFFIAAPNNVRTVLQDFIEHHIALGHLKVDDVELAARQYIELSTGTFFKLRLFGEIDGPVPEEELDRVIASAIKVFMAAYGTDKV | not soluble |
| MSIESIRNVIAKDMGEVDNVIQQKLHSQVALVRQVSEYIIHSGGKRLRPALVILAAGLFDYKGLHHHNLAAVVEFIHTATLLHDDVVDESELRRNQATANALFGNAASVLVGDFLYSRAFQMMVEVGNMRVMEVLADATNTIAEGEVLQLLNCRDPDVEEENYLQVIRFKTAKLFEAAARLGAILGGATPAEEEALAAYGMHLGTAFQLVDDLLDYSGNDQDTGKNLGDDLAEGKPTLPLIFAMRSGIPEQVDTVRHAIETGGKDGFEPILKIIQESGALDYAKQCAQNEANMAISAITAIRDSIYKQCLLELAEFAITRNY | not soluble |
